The record followed here is FireProtDB (doi:10.1021/bi060038+).

B1: Phosphocarrier protein HPr, P08877 (parent)
chain: MAQKTFKVTADSGIHARPATVLVQTASKYDADVNLEYNGKTVNLKSIMGVMSLGIAKGAEITISASGADENDALNALEETMKSEGLGE

The data set covers variants of B1. The note with it: Bacillus subtilis (strain 168), pH 7, CD, sodium phosphate 10 mM, reversible: Yes, structure 2HPR, whole UniProt chain shown; for ddG of mutation (higher = less stable) / denaturant m value / unfolding free energy: 25 °C; for Tm / change of melting temperature, mutant - wild type (higher = more stable) / unfolding enthalpy (van 't Hoff): Thermal.

The term Tm denotes the temperature at which the thermal transition is half complete. MRQKTFKVTADSGIHARPATVLVQTASKYDADVNLEYNGKTVNLKSIMGVMSLGIAKGAEITISASGADEEDALNALEETMKSEGLGE [A2R N71E]: the Tm is 83.1 °C; the “change of melting temperature, mutant - wild type (higher = more stable)” value was found to be 10.1 °C; the “unfolding enthalpy (van 't Hoff)” value stood at 91 kcal/mol. In addition, under “GdnHCl”, the “ddG of mutation (higher = less stable)” value is -1.5 kcal/mol, the denaturant m value amounted to 3.39 kcal/mol/M and the unfolding free energy was found to be 4.9 kcal/mol.
As for MKQKTFKVTADSGIHARPATVLVQTASKYDADVNLEYNGKTVNLKSIMGVMSLGIAKGAEITISASGADEEDALNALEETMKSEGLGE [A2K N71E], the Tm is 79.6 °C; the “change of melting temperature, mutant - wild type (higher = more stable)” value came to 6.6 °C; the “unfolding enthalpy (van 't Hoff)” value is 85 kcal/mol. Under “GdnHCl”, the “ddG of mutation (higher = less stable)” value is -1.1 kcal/mol, the denaturant m value was found to be 3.37 kcal/mol/M and the unfolding free energy was determined as 4.5 kcal/mol. For the same variant, for the setting “Urea”, the “ddG of mutation (higher = less stable)” value was -1.1 kcal/mol, the denaturant m value was 0.95 kcal/mol/M and the unfolding free energy was determined as 6.1 kcal/mol.
